From patent publication US20020028487A1 (UNIVERSITY COURT OF THE UNIVERSITY OF GLASGOW, published 2002)

B1: VP16-JMY^469-558 (other)
chain: EKLQYAVSKETLQMMRAKEICLEQKKHALKEEMQSLQGGTEAIARLDQLESDYYDLQLQLYEVQFEILKCEELLLTAQLESIKRLISEKR
notes: Two-hybrid prey used in yeast and in U2OS cells; also called pVP16-JMY^469-558; JMY-VP16
B2: Lex-JMY^469-558 (other)
chain: EKLQYAVSKETLQMMRAKEICLEQKKHALKEEMQSLQGGTEAIARLDQLESDYYDLQLQLYEVQFEILKCEELLLTAQLESIKRLISEKR
notes: Yeast two-hybrid bait; also called pLex-JMY^469-558; not shown: LexA part of bait vector pLex (his)

Assays:
[1] = biological target: T1, G4-p300 from residue 1302 to 1572 (yeast, UniProt P04386 1-147; Q09472 1302-1572); assay: mammalian two-hybrid assay, U2OS cells, pG5-luc reporter
T1 construct: Mammalian two-hybrid bait; also called p300^302-1572 (as printed in the methods)

G4-p300^1572-2283 = G4-p300^1572-2283 (yeast, UniProt P04386 1-147; Q09472 1572-2283); assay: cell-based or functional assay
G4-p300^611-1257 = G4-p300^611-1257 (yeast, UniProt P04386 1-147; Q09472 611-1257); assay: cell-based or functional assay
VP16-JMY^469-558 = biological target: B1; assay: yeast two-hybrid, β-galactosidase induction; prey VP16-JMY^469-558

Binder | binding result [1] | relative activity of luciferase to β-galactosidase (pG5-luc reporter, mammalian two-hybrid assay in U2OS cells) (G4-p300^1572-2283) | relative activity of luciferase to β-galactosidase (pG5-luc reporter, mammalian two-hybrid assay in U2OS cells) (G4-p300^611-1257) | binding result (VP16-JMY^469-558)
B1 | no binding | 5 fold increase | 4 fold increase | –
B2 | – | – | – | binds
